Data: paper PMC6050537, “Inhibition of low-density lipoprotein receptor degradation with a cyclic peptide that disrupts the homodimerization of IDOL E3 ubiquitin ligase† †Electronic supplementary information (ESI) available. See DOI: 10.1039/c8sc01186a” (Chemical Science, 2018)

Tests used:
Full length IDOL (1–445) [1] = molecular target: T1, Full length IDOL (1–445) (UniProt Q8WY64 1-445, NT-647-NHS dye (only the labelled copy in the MST assays)); assay: cell-based or functional assay
Full length IDOL (1–445) [2] = molecular target: T1, Full length IDOL (1–445); assay: MST; Monolith NT.115; 6× His IDOL labelled with NT-647-NHS dye at 50 nM, peptides titrated; 10 mM HEPES, 300 mM NaCl, 1 mM TCEP, 0.05% TWEEN-20, pH 8.0, 5% DMSO; conditions: both partners purified

B1: RINGPep2 (cyclo-CF-Cha-LYT) (peptide)
chain: CFXLYT
HELM: PEPTIDE1{C.F.[Cha].L.Y.T}$PEPTIDE1,PEPTIDE1,1:R1-6:R2$$$V2.0
SMILES: CC(C)C[C@@H]1NC(=O)[C@H](CC2CCCCC2)NC(=O)[C@H](Cc2ccccc2)NC(=O)[C@H](CS)NC(=O)[C@H]([C@@H](C)O)NC(=O)[C@H](Cc2ccc(O)cc2)NC1=O
Full length IDOL (1–445) [1]
  EC50 of Tat-RINGPep2 (0–35 μM) on LDLR protein levels in HepG2 cells; blocks IDOL homodimerization: 15 to 20 µM
Full length IDOL (1–445) [2]
  Kd: 4.6 µM
